In the Human Domainome abundance scans (Beltran et al. 2025):
± gives the uncertainty stated by the source.

B1: Homeobox protein SIX6, residues 134 to 184; numbered along this chain, O95475 (parent)
chain: CFKERTRHLLREWYLQDPYPNPSKKRELAQATGLTPTQVGNWFKNRRQRDR

Variants of: B1
Assay: abundance fitness (aPCA) (normalised: wild type 0, dead -1); higher = more abundant; growth selection in yeast, the domain comes from the species named
Settings: Homo sapiens
CFKERTRHLLREWYLQDPYPNPSKKRELAQATGETPTQVGNWFKNRRQRDR [L34E] gave an abundance fitness of -0.624 ± 0.18. For CFKERTRHLLREWYLQDPYPNPSKKRELAQATGATPTQVGNWFKNRRQRDR [L34A], the abundance fitness was -0.911 ± 0.079. For CFKERTRHLLREWYLQDPYPNPSKKRNLAQATGLTPTQVGNWFKNRRQRDR [E27N], the abundance fitness was -0.683 ± 0.44. CFKERTRHLLREWYLQDPYPNPSKKRFLAQATGLTPTQVGNWFKNRRQRDR [E27F] showed an abundance fitness of -0.318 ± 0.18. Work on CFKERTRHLLREWYLQDPYPNPSKKRLLAQATGLTPTQVGNWFKNRRQRDR [E27L] yielded an abundance fitness of -0.483 ± 0.1. CFKERTYHLLREWYLQDPYPNPSKKRELAQATGLTPTQVGNWFKNRRQRDR [R7Y] gave an abundance fitness of -0.147 ± 0.067. CFKERTRHLLREWYLQDPYPNPSKKRELAQATGLTPTQVENWFKNRRQRDR [G40E] gave an abundance fitness of -0.032 ± 0.076. CFKERTRHLLREWYLQDPYPNPSKKRELAQATGLTPTQVSNWFKNRRQRDR [G40S] showed an abundance fitness of 0.152 ± 0.062. CFKERTRHLLREWYLQDPYPNPSKKRELAQATGLTPTQVWNWFKNRRQRDR [G40W] gave an abundance fitness of -0.467 ± 0.062. CFKERTRHLLREWYLQDPYPNPSKKRELAQATGLTPTQVGNDFKNRRQRDR [W42D] gave an abundance fitness of -0.769 ± 0.21. In the case of CFMERTRHLLREWYLQDPYPNPSKKRELAQATGLTPTQVGNWFKNRRQRDR [K3M], the abundance fitness is reported as -0.171 ± 0.067. CFLERTRHLLREWYLQDPYPNPSKKRELAQATGLTPTQVGNWFKNRRQRDR [K3L] showed an abundance fitness of -0.181 ± 0.094. Variant CFKERTRHLLREWYFQDPYPNPSKKRELAQATGLTPTQVGNWFKNRRQRDR [L15F] has an abundance fitness of -0.651 ± 0.28. With CFKERTRHLLREWYLQDPYPNPSKKRELAQATGLTPTQVGNWFKNRRQSDR [R49S] the abundance fitness was -0.334 ± 0.066. CFKERTRHLLREWYLQDPYPNPSKKRELAQATGLTPTQVGNWFKNRRQNDR [R49N] gave an abundance fitness of -0.287 ± 0.18. CFKERTRHLLREWYLQDPYPNPSKKRELAQATGLTPTQVGNWFKNRRQDDR [R49D] gave an abundance fitness of -0.074 ± 0.11. For CFKERTRHLLREWYLQDPYPNPSKKRELAQATGLTPTQVGCWFKNRRQRDR [N41C], the abundance fitness was -0.158 ± 0.12. In the case of CFKERTRHLLREWYLQDPYPNPSKKRELAQATGLTPTQVGKWFKNRRQRDR [N41K], the abundance fitness is reported as 0.351 ± 0.054. For CFKERTRHLLREWYLQDPYPNPSKKRELAQATGLTPTQVGSWFKNRRQRDR [N41S], the abundance fitness was -0.342 ± 0.087. Variant CFKERTRHLLREWYLQDPYPNPSKKRELAQATGLTPTQVGMWFKNRRQRDR [N41M] has an abundance fitness of -0.38 ± 0.071. CFKERTRHLLREWYLQDPYPNPSKKRELAQATGLTKTQVGNWFKNRRQRDR [P36K] gave an abundance fitness of -0.33 ± 0.092. With CFKERTRHLLREWYLQDPYPNPSKKRELAQATGLTFTQVGNWFKNRRQRDR [P36F] the abundance fitness was 0.217 ± 0.082. CFKERTRHLLREWYLQDPYPNPSKKRELAQATGLTRTQVGNWFKNRRQRDR [P36R] showed an abundance fitness of -0.603 ± 0.047. CFKERTRHLLREWYLQDPYPNPSKKRELAQATGLTPTQVGNWFKNRRQRQR [D50Q] gave an abundance fitness of -0.189 ± 0.094. CFKERTRHLLREWYLQDWYPNPSKKRELAQATGLTPTQVGNWFKNRRQRDR [P18W] gave an abundance fitness of -0.491 ± 0.12. With CFKERTRHLLREWYLQDPYPNPRKKRELAQATGLTPTQVGNWFKNRRQRDR [S23R] the abundance fitness was -0.813 ± 0.1. CFKERTRHLLREWYLQDPYPNPWKKRELAQATGLTPTQVGNWFKNRRQRDR [S23W] showed an abundance fitness of -0.517 ± 0.14. Variant CFKERTRHLLREWYLQDPYPNPSKKRELAQATGLTPTQVGNWFKNRRQRDS [R51S] has an abundance fitness of -0.646 ± 0.45. For CFKERTRHLLREWYLQDPYPNPSKKRELAQAKGLTPTQVGNWFKNRRQRDR [T32K], the abundance fitness was -0.932 ± 0.1. CFKERTRHLLREWYLQDPYPNPSKKRELAQAYGLTPTQVGNWFKNRRQRDR [T32Y] gave an abundance fitness of -0.84 ± 0.26. For CFKERTRHLLREWYLQDPYPNPSKHRELAQATGLTPTQVGNWFKNRRQRDR [K25H], the abundance fitness was -0.031 ± 0.27. With CFKERTRHLLREWYLQDPYPNPSKIRELAQATGLTPTQVGNWFKNRRQRDR [K25I] the abundance fitness was 0.118 ± 0.1. With CFKERTRHLLREWYLQDPYPNPSKTRELAQATGLTPTQVGNWFKNRRQRDR [K25T] the abundance fitness was -0.074 ± 0.074. For CFKERTRHLLREWYLQDPYPNPSKNRELAQATGLTPTQVGNWFKNRRQRDR [K25N], the abundance fitness was -0.48 ± 0.21. Work on CFKERTRHLLREWYLQDPYPNPSKDRELAQATGLTPTQVGNWFKNRRQRDR [K25D] yielded an abundance fitness of -0.741 ± 0.17. In the case of CFKERTRHLLREWYLQDPYPNPSKGRELAQATGLTPTQVGNWFKNRRQRDR [K25G], the abundance fitness is reported as -0.789 ± 0.064. With CFKERTRHLAREWYLQDPYPNPSKKRELAQATGLTPTQVGNWFKNRRQRDR [L10A] the abundance fitness was -1.02 ± 0.14. For CFKERTRHLNREWYLQDPYPNPSKKRELAQATGLTPTQVGNWFKNRRQRDR [L10N], the abundance fitness was -0.722 ± 0.42. Variant CFKERTRHLFREWYLQDPYPNPSKKRELAQATGLTPTQVGNWFKNRRQRDR [L10F] has an abundance fitness of -0.684 ± 0.19. Variant CFKNRTRHLLREWYLQDPYPNPSKKRELAQATGLTPTQVGNWFKNRRQRDR [E4N] has an abundance fitness of -0.03 ± 0.22. CFKERTRHLLREPYLQDPYPNPSKKRELAQATGLTPTQVGNWFKNRRQRDR [W13P] showed an abundance fitness of -0.994 ± 0.24. Work on CFKERTRHLLREGYLQDPYPNPSKKRELAQATGLTPTQVGNWFKNRRQRDR [W13G] yielded an abundance fitness of -0.157 ± 0.045. CFKERTRHLLREAYLQDPYPNPSKKRELAQATGLTPTQVGNWFKNRRQRDR [W13A] gave an abundance fitness of -0.003 ± 0.061. CFKERTRHLLRECYLQDPYPNPSKKRELAQATGLTPTQVGNWFKNRRQRDR [W13C] gave an abundance fitness of 0.011 ± 0.11. CFKERTRHMLREWYLQDPYPNPSKKRELAQATGLTPTQVGNWFKNRRQRDR [L9M] gave an abundance fitness of -0.238 ± 0.14. CFKERTRHLLREWYLQDPYPPPSKKRELAQATGLTPTQVGNWFKNRRQRDR [N21P] gave an abundance fitness of -0.505 ± 0.4. CFKERTRHLLREWYLQDPYPNPSKKRELAQATGLTPTQVGNWFQNRRQRDR [K44Q] gave an abundance fitness of -0.271 ± 0.055. Variant CFKERTRHLLREWYLQDPYPNPSKKRELAQATGLTPTQVGNWFCNRRQRDR [K44C] has an abundance fitness of -0.361 ± 0.053. CFKERTRHLLREWYLQDPYPNPSKKRELAQATGLTPTQVGNWFANRRQRDR [K44A] gave an abundance fitness of -0.195 ± 0.067. Variant CFKERTRHLLREWYLQDPYPNPSKKRELAQATGLTPTQVGNWFFNRRQRDR [K44F] has an abundance fitness of -0.438 ± 0.15. Work on CFKERTRHLLREWYLQDPYPNPSKKRELAQATGLTPEQVGNWFKNRRQRDR [T37E] yielded an abundance fitness of 0.018 ± 0.081.
